Experimental data reported in patent US12637513B2, “Method of treating cancer by administering an inhibitor of erythropoietin receptor activity comprising either erythropoietin receptor or erythropoietin protein” (ImmunEdge, Inc., priority 2022, dated 2026).

Tests used:
[1] = target: T1, 293T/CD131 cells (Homo sapiens, UniProt P32927); test: Staining of 293T/CD131 cells with purified antibodies; assay type: binding
T1 construct: expressed in transfected cells; host or cells: 293T cells, lentiviral transduction
T1 sequence (P32927 17-897): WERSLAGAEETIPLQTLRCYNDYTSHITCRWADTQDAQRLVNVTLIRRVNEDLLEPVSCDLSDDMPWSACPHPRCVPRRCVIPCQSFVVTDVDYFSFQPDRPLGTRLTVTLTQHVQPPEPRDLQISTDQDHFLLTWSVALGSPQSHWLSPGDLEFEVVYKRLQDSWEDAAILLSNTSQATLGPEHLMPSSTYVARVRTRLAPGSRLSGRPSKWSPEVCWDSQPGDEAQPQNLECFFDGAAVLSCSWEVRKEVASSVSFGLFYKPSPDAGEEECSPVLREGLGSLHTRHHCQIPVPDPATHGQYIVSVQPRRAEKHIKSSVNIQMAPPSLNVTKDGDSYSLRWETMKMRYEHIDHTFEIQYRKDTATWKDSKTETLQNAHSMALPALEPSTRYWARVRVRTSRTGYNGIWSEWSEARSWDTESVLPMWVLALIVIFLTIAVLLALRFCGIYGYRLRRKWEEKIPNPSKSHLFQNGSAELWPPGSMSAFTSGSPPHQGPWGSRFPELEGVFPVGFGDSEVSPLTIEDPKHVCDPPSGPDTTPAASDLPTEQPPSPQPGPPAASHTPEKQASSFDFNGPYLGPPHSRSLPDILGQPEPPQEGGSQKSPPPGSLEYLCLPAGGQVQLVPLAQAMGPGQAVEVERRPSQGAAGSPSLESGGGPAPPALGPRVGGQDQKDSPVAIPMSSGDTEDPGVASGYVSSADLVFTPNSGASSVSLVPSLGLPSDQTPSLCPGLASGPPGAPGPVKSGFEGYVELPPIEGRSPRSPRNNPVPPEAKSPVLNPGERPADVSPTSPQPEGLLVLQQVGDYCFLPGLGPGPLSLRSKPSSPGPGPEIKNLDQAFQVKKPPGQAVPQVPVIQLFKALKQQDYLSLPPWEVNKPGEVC
Method: (§1) The purified antibodies were used to stain the human leukemia UT-7 cells, 293T/EPOR, 293T/CD131, and 293T/EPOR/CD131 cells to confirm antigen binding. The UT-7 cells were maintained in Roswell Park Memorial Institute (RPMI) with 10% Fetal Bovine Serum (FBS) and 5 ng/ml of recombinant human GM-CSF (Peprotech®, Cat #300-03). The 293T cells expressing hEPOR, hCD131, or both were maintained in Dulbecco's Modified Eagle Medium (DMEM) with 10% FBS. 1×10^6 cells/ml were incubated with purified hybridoma clones M2 and M41 at a 3-fold dilution series starting from 20 μg/ml for 30 minutes at 4° C. After washing, the cells were incubated with PE labeled secondary antibody and subjected to flowcytometric analysis. […] The binding profiles of the 293T/EPOR/CD131 cells are similar except the peak MFIs around 1500, half of that of the 293T/EPOR cells (FIG. 29B).

[2] = target: T2, 293T/EPOR/CD131 cells (Homo sapiens, UniProt P19235); test: Staining of 293T/EPOR/CD131 cells with purified antibodies; assay type: binding
T2 construct: expressed in transfected cells; host or cells: 293T cells, lentiviral transduction
T2 sequence (P19235 25-508): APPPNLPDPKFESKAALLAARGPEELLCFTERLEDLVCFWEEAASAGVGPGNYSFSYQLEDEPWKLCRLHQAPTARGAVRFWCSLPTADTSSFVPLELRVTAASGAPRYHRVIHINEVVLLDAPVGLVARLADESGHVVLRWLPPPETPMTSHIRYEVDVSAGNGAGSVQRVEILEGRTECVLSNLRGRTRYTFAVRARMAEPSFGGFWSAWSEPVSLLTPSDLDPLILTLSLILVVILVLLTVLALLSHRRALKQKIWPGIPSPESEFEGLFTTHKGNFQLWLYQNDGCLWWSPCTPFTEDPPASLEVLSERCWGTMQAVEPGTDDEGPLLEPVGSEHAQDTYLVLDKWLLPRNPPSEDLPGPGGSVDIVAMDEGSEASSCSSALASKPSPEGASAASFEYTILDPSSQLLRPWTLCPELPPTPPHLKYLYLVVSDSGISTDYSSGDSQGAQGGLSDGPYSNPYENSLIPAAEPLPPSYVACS
Method: as §1

B1: EPORab - M2: hybridoma antibody clone, VH/VK in Table 10 (antibody, V domains shown)
VH: QVQLVESGGGLVKPGGSLRLSCAASGFTFSDSYMSWIRQAPGKGLEWVSYISNSGSYMYYADSVKGRFTISRDNAKNSLYLQMNNLRAEDTAVYYCARDKLGIGDYWGQGTLVTVSS
VL: DIQMTQSPSSLSASVGDRVTITCRASQGIRNDLGWFQQKPGKAPKRLIYAASRLQSGVPSRFSGSGSGTEFTLTISSLQPEDFATYCCLQHHTYPPTFGQGTKVEIK
- staining of 293T/CD131 cells [1]: did not stain
- peak MFI [2]: around 1500
